Experimental data: FireProtDB (doi:10.1016/j.bpc.2007.01.006)
Several values for one entry are separate records, joined by “and”; a condition that tells them apart may be missing. Equal values may be shown once.

Details: Bos taurus, pH 2, 25 °C, Glycine-HCl 0.05 M, KCl 0.1 M, reversible: Yes, whole UniProt chain shown
[1] = GdnHCl, Fluorescence, transition: 3

B1: Beta-lactoglobulin wild type, P02754 (protein)
chain: MKCLLLALALTCGAQALIVTQTMKGLDIQKVAGTWYSLAMAASDISLLDAQSAPLRVYVEELKPTPEGDLEILLQKWENGECAQKKIIAEKTKIPAVFKIDALNENKVLVLDTDYKKYLLFCMENSAEPEQSLACQCLVRTPEVDDEALEKFDKALKALPMHIRLSFNPTQLEEQCHI
denaturant m value [1]: 4.97 kcal/mol/M and 4.1 kcal/mol/M
denaturant midpoint (higher = more stable) [1]: 1.44 M and 3.14 M
unfolding free energy [1]: 7.15 kcal/mol and 4.88 kcal/mol
denaturant m value (Urea, Absorbance): 1.62 kcal/mol/M
denaturant midpoint (higher = more stable) (Urea, Absorbance): 5.3 M
unfolding free energy (Urea, Absorbance): 8.58 kcal/mol
denaturant m value (Urea, CD): 1.06 kcal/mol/M and 1.08 kcal/mol/M and 1.1 kcal/mol/M
denaturant midpoint (higher = more stable) (Urea, CD): 6 M and 6.34 M and 6.55 M
unfolding free energy (Urea, CD): 6.41 kcal/mol and 6.84 kcal/mol and 7.17 kcal/mol
denaturant m value (Urea, Fluorescence): 1.56 kcal/mol/M
denaturant midpoint (higher = more stable) (Urea, Fluorescence): 5.42 M
unfolding free energy (Urea, Fluorescence): 8.41 kcal/mol
